Data as given in EP4431526A1 (Emfret Analytics GmbH & Co. KG, dated 2024).

T1: human GPVI-Fc fusion protein (human, UniProt Q9HCN6 21-267, limits assumed)
T1 construct: also called human GPVI protein antigen
T1 sequence (looked up): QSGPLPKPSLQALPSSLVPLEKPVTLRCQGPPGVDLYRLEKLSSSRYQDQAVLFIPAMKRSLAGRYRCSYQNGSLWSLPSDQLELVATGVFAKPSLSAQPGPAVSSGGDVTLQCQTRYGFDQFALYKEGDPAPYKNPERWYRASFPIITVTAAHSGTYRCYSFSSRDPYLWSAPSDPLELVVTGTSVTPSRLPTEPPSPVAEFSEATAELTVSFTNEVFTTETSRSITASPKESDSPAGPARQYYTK

B1: HC0 LC0 chimeric Fab fragment (Fab, V domains shown)
VH: QVQLKESGPGLVQPSQSLSITCTVSGFSLTSYGVTWVRQPPGKGLEWLGVIWGDGSTNYHSGLRSRLSISRDDSKSQVFLKLNSLQTDDTATYYCAKPIYYDFDDDAMDYWGQGTSVTVSS
VL: DIVMTQSQKFMSTSVGDRVSVTCKASQNVGTYVAWFQQKPGQSPKTLIYSASYRCSGVPDRFTGSGSGTDFTLTISNVQSDDLAEYFCHQYNNYPLTFGAGTKLELRR
notes: Murine variable domains with human Ig constant domains, expressed in CHO; also called HC0 LCD; chimeric control antibody
B2: HC3 LC4 humanized Fab (Fab, V domains shown)
VH: QVQLVESGGGVVQPGRSLRLSCVASGFSLTSYGVTWVRQAPGKGLEWVAVIWGDGSTNYHSGLRSRFTISRDNSKNTMFLQMNSLRADDTAVYYCAKPIYYDFDDDAMDYWGQGTLVTVSS
VL: DIVMTQSPATLSLSPGDRATLSCKASQNVGTYVAWYQQKPGQAPRLLIYSASYRCSGIPARFSGSGSGTDFTLTISSLQSEDFAVYYCHQYNNYPLTFGGGTKVEIKR
notes: also called VH3:VL4
B3: HC4 LC4 humanized Fab (Fab, V domains shown)
VH: QVQLVESGGGVVQPGRSLRLSCAASGFSLTSYGVTWVRQSPGKGLEWVAVIWGDGSTNYHSGLRSRLTISRDNSKNTLYLEMNSLRTEDTATYYCAKPIYYDFDDDAMDYWGQGTKVTVSS
VL: DIVMTQSPATLSLSPGDRATLSCKASQNVGTYVAWYQQKPGQAPRLLIYSASYRCSGIPARFSGSGSGTDFTLTISSLQSEDFAVYYCHQYNNYPLTFGGGTKVEIKR
notes: also called VH4:VL4
B4: HC5 LC1 humanized Fab (Fab, V domains shown)
VH: QVQLQESGPGLVKPSETLSLTCTVSGFSLTSYGVTWIRQPPGKGLEWIGVIWGDGSTNYHSGLRSRVTISVDTSKNQFSLKLSSVTAADTAVYYCAKPIYYDFDDDAMDYWGQGTSVTVSS
VL: EIVLTQSPSSLSASVGDRVTITCKASQNVGTYVAWFQQKPGKAPKSLIYSASYRCSGVPSKFSGSGSGTDFTLTISSLQPEDFATYYCHQYNNYPLTFGQGTKLEIKR
notes: also called VH5:VL1
B5: HC3 LC1 humanized Fab (Fab, V domains shown)
VH: QVQLVESGGGVVQPGRSLRLSCVASGFSLTSYGVTWVRQAPGKGLEWVAVIWGDGSTNYHSGLRSRFTISRDNSKNTMFLQMNSLRADDTAVYYCAKPIYYDFDDDAMDYWGQGTLVTVSS
VL: EIVLTQSPSSLSASVGDRVTITCKASQNVGTYVAWFQQKPGKAPKSLIYSASYRCSGVPSKFSGSGSGTDFTLTISSLQPEDFATYYCHQYNNYPLTFGQGTKLEIKR
notes: also called VH3:VL1
B6: HC2 LC3 humanized Fab (Fab, V domains shown)
VH: EVQLVESGPGLVKPSETLSLTCTVSGFSLTSYGVTWIRQPPGKGLEWIGVIWGDGSTNYHSGLRSRVTISVDTSKNQFSLKLSSVTAADTAVYYCAKPIYYDFDDDAMDYWGQGTLVTVSS
VL: DIQLTQSPSTLSASVGDRVTITCKASQNVGTYVAWYQQKPGKAPKLLIYSASYRCSGVPSRFSGSGSGTEFTLTISSLQPDDFTTYYCHQYNNYPLTFGQGTKVEIKR
notes: also called VH2:VL3
B7: HC1 LC3 humanized Fab (Fab, V domains shown)
VH: QVQLQESGPGLVKPSETLSLTCTASGFSLTSYGVTWIRQPPGKGLEWIGVIWGDGSTNYHSGLRSRVTISVDTSKSQFSLKLSSVTAADTAVYYCAKPIYYDFDDDAMDYWGQGTLVTVSS
VL: DIQLTQSPSTLSASVGDRVTITCKASQNVGTYVAWYQQKPGKAPKLLIYSASYRCSGVPSRFSGSGSGTEFTLTISSLQPDDFTTYYCHQYNNYPLTFGQGTKVEIKR
notes: also called VH1:VL3
B8: HC4 LC2 humanized Fab (Fab, V domains shown)
VH: QVQLVESGGGVVQPGRSLRLSCAASGFSLTSYGVTWVRQSPGKGLEWVAVIWGDGSTNYHSGLRSRLTISRDNSKNTLYLEMNSLRTEDTATYYCAKPIYYDFDDDAMDYWGQGTKVTVSS
VL: DIQMTQSPSSLSASVGDRVTITCKASQNVGTYVAWFQQRPGKAPKSLIYSASYRCSGVPSKFSGSGSGTDFTLTINSLQPEDFATYYCHQYNNYPLTFGQGTKVEIKR
notes: also called VH4:VL2
B9: HC5 LC4 humanized Fab (Fab, V domains shown)
VH: QVQLQESGPGLVKPSETLSLTCTVSGFSLTSYGVTWIRQPPGKGLEWIGVIWGDGSTNYHSGLRSRVTISVDTSKNQFSLKLSSVTAADTAVYYCAKPIYYDFDDDAMDYWGQGTSVTVSS
VL: DIVMTQSPATLSLSPGDRATLSCKASQNVGTYVAWYQQKPGQAPRLLIYSASYRCSGIPARFSGSGSGTDFTLTISSLQSEDFAVYYCHQYNNYPLTFGGGTKVEIKR
notes: also called VH5:VL4
B10: HC3 LC2 humanized Fab (Fab, V domains shown)
VH: QVQLVESGGGVVQPGRSLRLSCVASGFSLTSYGVTWVRQAPGKGLEWVAVIWGDGSTNYHSGLRSRFTISRDNSKNTMFLQMNSLRADDTAVYYCAKPIYYDFDDDAMDYWGQGTLVTVSS
VL: DIQMTQSPSSLSASVGDRVTITCKASQNVGTYVAWFQQRPGKAPKSLIYSASYRCSGVPSKFSGSGSGTDFTLTINSLQPEDFATYYCHQYNNYPLTFGQGTKVEIKR
notes: also called VH3:VL2
B11: HC4 LC1 humanized Fab (Fab, V domains shown)
VH: QVQLVESGGGVVQPGRSLRLSCAASGFSLTSYGVTWVRQSPGKGLEWVAVIWGDGSTNYHSGLRSRLTISRDNSKNTLYLEMNSLRTEDTATYYCAKPIYYDFDDDAMDYWGQGTKVTVSS
VL: EIVLTQSPSSLSASVGDRVTITCKASQNVGTYVAWFQQKPGKAPKSLIYSASYRCSGVPSKFSGSGSGTDFTLTISSLQPEDFATYYCHQYNNYPLTFGQGTKLEIKR
notes: also called VH4:VL1
B12: HC2 LC2 humanized Fab (Fab, V domains shown)
VH: EVQLVESGPGLVKPSETLSLTCTVSGFSLTSYGVTWIRQPPGKGLEWIGVIWGDGSTNYHSGLRSRVTISVDTSKNQFSLKLSSVTAADTAVYYCAKPIYYDFDDDAMDYWGQGTLVTVSS
VL: DIQMTQSPSSLSASVGDRVTITCKASQNVGTYVAWFQQRPGKAPKSLIYSASYRCSGVPSKFSGSGSGTDFTLTINSLQPEDFATYYCHQYNNYPLTFGQGTKVEIKR
notes: also called VH2:VL2; EMF602
B13: HC2 LC4 humanized Fab (Fab, V domains shown)
VH: EVQLVESGPGLVKPSETLSLTCTVSGFSLTSYGVTWIRQPPGKGLEWIGVIWGDGSTNYHSGLRSRVTISVDTSKNQFSLKLSSVTAADTAVYYCAKPIYYDFDDDAMDYWGQGTLVTVSS
VL: DIVMTQSPATLSLSPGDRATLSCKASQNVGTYVAWYQQKPGQAPRLLIYSASYRCSGIPARFSGSGSGTDFTLTISSLQSEDFAVYYCHQYNNYPLTFGGGTKVEIKR
notes: also called VH2:VL4
B14: HC1 LC4 humanized Fab (Fab, V domains shown)
VH: QVQLQESGPGLVKPSETLSLTCTASGFSLTSYGVTWIRQPPGKGLEWIGVIWGDGSTNYHSGLRSRVTISVDTSKSQFSLKLSSVTAADTAVYYCAKPIYYDFDDDAMDYWGQGTLVTVSS
VL: DIVMTQSPATLSLSPGDRATLSCKASQNVGTYVAWYQQKPGQAPRLLIYSASYRCSGIPARFSGSGSGTDFTLTISSLQSEDFAVYYCHQYNNYPLTFGGGTKVEIKR
notes: also called VH1:VL4
B15: HC5 LC2 humanized Fab (Fab, V domains shown)
VH: QVQLQESGPGLVKPSETLSLTCTVSGFSLTSYGVTWIRQPPGKGLEWIGVIWGDGSTNYHSGLRSRVTISVDTSKNQFSLKLSSVTAADTAVYYCAKPIYYDFDDDAMDYWGQGTSVTVSS
VL: DIQMTQSPSSLSASVGDRVTITCKASQNVGTYVAWFQQRPGKAPKSLIYSASYRCSGVPSKFSGSGSGTDFTLTINSLQPEDFATYYCHQYNNYPLTFGQGTKVEIKR
notes: also called VH5:VL2
B16: HC5 LC3 humanized Fab (Fab, V domains shown)
VH: QVQLQESGPGLVKPSETLSLTCTVSGFSLTSYGVTWIRQPPGKGLEWIGVIWGDGSTNYHSGLRSRVTISVDTSKNQFSLKLSSVTAADTAVYYCAKPIYYDFDDDAMDYWGQGTSVTVSS
VL: DIQLTQSPSTLSASVGDRVTITCKASQNVGTYVAWYQQKPGKAPKLLIYSASYRCSGVPSRFSGSGSGTEFTLTISSLQPDDFTTYYCHQYNNYPLTFGQGTKVEIKR
notes: also called VH5:VL3
B17: HC3 LC3 humanized Fab (Fab, V domains shown)
VH: QVQLVESGGGVVQPGRSLRLSCVASGFSLTSYGVTWVRQAPGKGLEWVAVIWGDGSTNYHSGLRSRFTISRDNSKNTMFLQMNSLRADDTAVYYCAKPIYYDFDDDAMDYWGQGTLVTVSS
VL: DIQLTQSPSTLSASVGDRVTITCKASQNVGTYVAWYQQKPGKAPKLLIYSASYRCSGVPSRFSGSGSGTEFTLTISSLQPDDFTTYYCHQYNNYPLTFGQGTKVEIKR
notes: also called VH3:VL3
B18: HC2 LC1 humanized Fab (Fab, V domains shown)
VH: EVQLVESGPGLVKPSETLSLTCTVSGFSLTSYGVTWIRQPPGKGLEWIGVIWGDGSTNYHSGLRSRVTISVDTSKNQFSLKLSSVTAADTAVYYCAKPIYYDFDDDAMDYWGQGTLVTVSS
VL: EIVLTQSPSSLSASVGDRVTITCKASQNVGTYVAWFQQKPGKAPKSLIYSASYRCSGVPSKFSGSGSGTDFTLTISSLQPEDFATYYCHQYNNYPLTFGQGTKLEIKR
notes: also called VH2:VL1
B19: HC1 LC1 humanized Fab (Fab, V domains shown)
VH: QVQLQESGPGLVKPSETLSLTCTASGFSLTSYGVTWIRQPPGKGLEWIGVIWGDGSTNYHSGLRSRVTISVDTSKSQFSLKLSSVTAADTAVYYCAKPIYYDFDDDAMDYWGQGTLVTVSS
VL: EIVLTQSPSSLSASVGDRVTITCKASQNVGTYVAWFQQKPGKAPKSLIYSASYRCSGVPSKFSGSGSGTDFTLTISSLQPEDFATYYCHQYNNYPLTFGQGTKLEIKR
notes: Monovalent 50 kDa Fab from CHO; also called VH1:VL1

Each binder was assayed against T1, human GPVI-Fc fusion protein (assay: BLI (Octet), GPVI-Fc on biosensor, 1:1 fit).
With B1 the Kd was 427 pM, the koff was 0.000212 s⁻¹ and the kon was 496000 M⁻¹ s⁻¹.
B2 showed a Kd of 431 pM, a koff of 0.000618 s⁻¹ and a kon of 1.43e+06 M⁻¹ s⁻¹.
In the case of B3, the Kd is reported as 572 pM, the koff is reported as 0.000412 s⁻¹ and the kon is reported as 720000 M⁻¹ s⁻¹.
With B4 the Kd was 333 pM, the koff was 0.000261 s⁻¹ and the kon was 782000 M⁻¹ s⁻¹.
For B5, the Kd was 353 pM, the koff was 0.000587 s⁻¹ and the kon was 1.66e+06 M⁻¹ s⁻¹.
With B6 the Kd was 250 pM, the koff was 0.000144 s⁻¹ and the kon was 576000 M⁻¹ s⁻¹.
For B7, the Kd was 284 pM, the koff was 0.000221 s⁻¹ and the kon was 777000 M⁻¹ s⁻¹.
Work on B8 yielded a Kd of 395 pM, a koff of 0.000508 s⁻¹ and a kon of 1.29e+06 M⁻¹ s⁻¹.
In the case of B9, the Kd is reported as 554 pM, the koff is reported as 0.000319 s⁻¹ and the kon is reported as 576000 M⁻¹ s⁻¹.
With B10 the Kd was 215 pM, the koff was 0.000362 s⁻¹ and the kon was 1.68e+06 M⁻¹ s⁻¹.
B11 gave a Kd of 425 pM, a koff of 0.000339 s⁻¹ and a kon of 797000 M⁻¹ s⁻¹.
In the case of B12, the Kd is reported as 175 pM, the koff is reported as 0.000162 s⁻¹ and the kon is reported as 931000 M⁻¹ s⁻¹.
B13 showed a Kd of 693 pM, a koff of 0.0011 s⁻¹ and a kon of 1.59e+06 M⁻¹ s⁻¹.
B14 was tested, and the Kd was 496 pM, the koff was 0.000333 s⁻¹ and the kon was 671000 M⁻¹ s⁻¹.
B15 was tested, and the Kd was 367 pM, the koff was 0.00024 s⁻¹ and the kon was 655000 M⁻¹ s⁻¹.
With B16 the Kd was 637 pM, the koff was 0.000437 s⁻¹ and the kon was 686000 M⁻¹ s⁻¹.
In the case of B17, the Kd is reported as 299 pM, the koff is reported as 0.000561 s⁻¹ and the kon is reported as 1.87e+06 M⁻¹ s⁻¹.
In the case of B18, the Kd is reported as 269 pM, the koff is reported as 0.000189 s⁻¹ and the kon is reported as 703000 M⁻¹ s⁻¹.
B19 was tested, and the Kd was 413 pM, the koff was 0.000332 s⁻¹ and the kon was 804000 M⁻¹ s⁻¹.
